# Results from the DeepSol protein solubility set.
# Experiment: soluble on expression in E. coli; label from the status in PepcDB or PDB records
row,Sequence,soluble on expression in E. coli
1,MSLDIILDQPEQMLFALLRSALNSTKPVSEILFTDISPALWQACYRLACTQGVMALAWDGIQTLPACLQPPKALKLNWAMAVENYEKRYLRYCHTIAELSAFYKTHGITTVQLKGVGLSTYYPIPSHREGGDIDIFTYSADHSRKSDAEANRLADRLMEEKGIEVDFEHSEKHSMFYYKGIPIENHKTFINSETYRIAVKMDKLLQKLLQPVSAELDGKCSILIPSSTFNTVFLAFHAAQHYARGLALHHLCDWACLLNRYDLHIPEEVTDIRFRNMILAMTRLCNDYLGTSVPVYGGEELAEEILREIIRPPYTMSVPAKNKWGILVYKTKRMLHTHRACNSVLRISLCKWVGNSILLHLRSPHTIFQTEREGHHHHHH,soluble
2,MASYLPSEWQDDLKMNGLMSVMKERHVNKVDYDRKLRFWTDAIYGSCIGEKNATFNLLELKKRFRRNDRVPASLDVILDHLKKKGDVITIGEWRDRHSSWVGWGFSKTKGWMFGASSDSEQLLHLPTIKKLGQEILDIYNEELRSEIDCTGEVVTYNEMFDRASNIISKIETFDIVLEHLNDIGELTVGTTRNGEKVLKFKDNGSEDPVKFTEADASVVDIRKAMNKLDREIQQLEQKVKKYDEQCRACLRTGDKGRAQNFLRQRKRAEKDIADKDVQYQKLLTMLHQISSAKNNKDVLQAYKSGTAAFKATLARQGLSPDKIHETMDDVVNSMDEYKEIEEAISSPFVNANGFNDADLEQELEDLISDNKKNESVHLPEAPTNRFGLFDKEVTPEEDQLEKRLARLRQAI,not soluble
3,MTLKGMSYVMCTGSFKLEKEVAETQHGTVLVQVKYEGTDAPCKIPFSTQDEKGATQNGRLITANPIVTDKEKPVNIEAEPPFGESYIVVGAGEKALKLSWFKKGSSIG,soluble
4,MDNTEDVIKEFMQFKVRMEGSVNGHYFEIEGEGEGKPYEGTQTAKLQVTKGGPLPFAWDILSPQFQYGSKAYVKHPADIPDYMKLSFPEGFTWERSMNFEDGGVVEVQQDSSLQDGTFIYKVKFKGVNFPADGPVMQKKTAGWEPSTEKLYPQDGVLKGEISHALKLKDGGHYTCDFKTVYKAKKPVQLPGNHYVDSKLDITNHNEDYTVVEQYEHAEARHSGSQ,soluble
5,MLSGYIAGAIMKQEVILVLDCGATNVRAIAVNRQGKIVARASTPNASDIAMENNTWHQWSLDAILQRFADCCRQINSELTECHIRGIAVTTFGVDGALVDKQGNLLYPIISWKCPRTAAVMDNIERLISAQRLQAISGVGAFSFNTLYKLVWLKENHPQLLERAHAWLFISSLINHRLTGEFTTDITMAGTSQMLDIQQRDFSPQILQATGIPRRLFPRLVEAGEQIGTLQNSAAAMLGLPVGIPVISAGHDTQFALFGAGAEQNEPVLSSGTWEILMVRSAQVDTSLLSQYAGSTCELDSQAGLYNPGMQWLASGVLEWVRKLFWTAETPWQMLIEEARLIAPGADGVKMQCDLLSCQNAGWQGVTLNTTRGHFYRAALEGLTAQLQRNLQMLEKIGHFKASELLLVGGGSRNTLWNQIKANMLDIPLKVLDDAETTVAGAALFGWYGVGEFNSPEEARAQIHYQFRYFYPQTEPEFIEEV,not soluble
6,MGSDKIHHHHHHMVKNDESQIFTKMRLTLVIPSLYSGGAERVLSIIANYWASKGWKVTLLTFCGNQPPFYDLDSRISYIPLHIARDSSNLIAAVKNNLYRIFKLRLAITASNPDIVISFMSEANVTTLLATRGLNVPVLVSERNNPKIRLTKSSIWVKLRQLTYPFAQRVIVQTQRALNYFPSSLKNRICVIPNPVLLPPNKPCKPQELFNKLPGQKLLIAVGRLESQKGFDLLLQAFANLKDDFSEWQLVILGEGILHLDLTELCHQLQLNGRVYFLGRVKNIYEFLQEADIYVMSSRFEGFPNALCEAMASGLPVISTDCPNGPREIIRDGIDGLLVPNEDVLALTSAIKLLMSDEEKRKNLATNASEIAERFSIDKIMEMWEFVVKDVVES,not soluble
7,MLYKEPEDGEKIKFDKGKWIVPNKPVILYIEGDGIGPEITNAAIKVINKAVERAYGSSREIKWLEVYAGEKAEKLVNDRFPKETQEMLLKYRVVLKGPLETPIGKGWKSVNVAIRLMLDLYANIRPVKYIEGLESPLKHPEKVDMIIFRENTDDLYRGIEYPFNSEEAKKIRDFLRKELKVEIEDDTGIGIKVMSKYKTQRITRLAIQYAIEHKRKKVTIMHKGNVMKYTEGAFREWAYEVALKEYRDFIVTEEEINQGKPDQGKIILNDRIADNMFQQIIIRPEEYDIILAPNVNGDYISDAAGALIGNIGMLGGANIGDEGGMFEAIHGTAPKYAGKNVANPTGIIKAGELMLRWMGWNEAADLIEKAINMAIRDKKVTQDIARFMGVKALGTKEYADELIKIMDTI,soluble
